Data from the nanobody polyreactivity screen of Harvey et al. (2022).

experiment: yeast display, Sf9 membrane polyspecificity reagent, FACS + sequencing; frameworks hold sequencing errors
Method in brief: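 After 36–48 hours of galactose induction, yeast (Saccharomyces cerevisiae BJ5465) displaying a synthetic nanobody library were stained at 4 °C for 1 hour with 10% biotinylated, detergent-solubilized Sf9 membrane reagent. Streptavidin microbeads enriched the stained cells before FACS sorting into low and high (top ~1%) gates on anti-HA and streptavidin fluorescence. Each clone's polyreactivity label reflects its gate of origin.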

Sequence	polyreactivity (PSR sort gate)
QVQLVESGGGLVQAGGSLRLSCAASGSIFAWYGMGWYRQAPGKERELVAAISTAGSTNYADSVKGRFTISRDNAKNSVYLQMNSLKPEDTAVYYCAKKSSWYYPERFDYWGQGTQVTVSS	low polyreactivity
QVQLVESGGGLVQAGGSLRLSCAASGSTFTGYAMGWYRPAPGKERELVAAISRSVGRTYYADSVKGRFTISRDNAKNTVYLQMNSLKPEDTAVYYCAADVYLTGSRNYYWGQGTQVTVSS	high polyreactivity
QVQLVESGGGLVQAGGSLRLSCAASGSIFGSYTMGWYRQAPGKEREFVAAINFSGGRTYYADSVKGRFTISRDNAKNTVYLQMNSLKPEDTAVYYCARRWRQARYDYWGQGTQVTVSS	high polyreactivity
QVQHVESGGGLVQAGGTLRLSCAASGSTFLINTMGWYRQAPGKERELVAAISRSGGRTYYADSVKGRFTISRDNAKNTVYLQMNSLKPEDTAVYYCAAAYVYSNSYAFGSELYSWGQGTQVTVSS	high polyreactivity
QVQLVESGGGLVQAGGRLRLSCAASGSIFIYNAMGWYRQAPGKERELVATSSSGTRTYYADSVKGRFTISRDNAQNTVYFQMNSLKPEDTAVYNCAADGPFRRTYGDWGQGPQVTVSS	low polyreactivity
QVQLEESGGGLVQAGGSLRISCAASGKIFSYNAMGWYRHAPGKERELVAAISRSGGSTYYADSVKGRFTISRDNAKNTVYLQMNSLKPEDTAVYYCAADWRGRKYDYWGQVTQVTVSS	high polyreactivity
QVQLVESGGGLVQAGGSLRLSCAASGRIFDTNFIGWYRLAPGKERELVAANSQSGGITYYADSVKGRFTISRDNAKKTVYLQMNSLKPEDTAVYYCAKDTVTVSFNEYDYWGQGTQVTVSS	low polyreactivity
QVQLVESGGGLVQAGGTLRLSCAASGSTFYENTMGWYRQARGKERELVAAISFRGGSTYYADSVKGRFTISRDNAKKTVYLQMNSLKPEDTAVYYCAKDYYTLRLYDYWGQGTLVTVSS	low polyreactivity
QVQLVESGGGSVQAGGSLRLSCAASGFNFVYYAMGWYRQAPGKERELVAAITWSGGSTYADSVKGRFTISRDNAKNTVYLQMNSLKPEDTAVYYCAAEYDISSGYGFDFDYWGQGTQVTVSS	low polyreactivity
QVQLVESGGGLVQAGGSLRLSCDASGFIIRRNAMGWYRQAPGKEREFVAAITWSGGSTYYADSVKGRFTISRDNAKNTVYLQMYSLKPEDTAVYYCAATYSQYWYTQYLNSYPGYDYWRQGTQVTVSS	low polyreactivity
QVHLVESGGGLVQAGGSLRLSCAASGRIFDDYAMGWYRQAPGKERELVAAISWSGGSTYYADSVKVRFTISRDNAKNTVYLQRNSLKPEDTAVYYCAAPYHYYKRIGYDYWGQGTQVTVSS	low polyreactivity
QVQLVETGGGLVQAGGSLRLSCAASGSIFASYAMGWYRQAPGKERELVAAITTSGGRTYYADSVKGRFTISRDNAKNTVYLQMNSLKPEDTAVYYCAVRYRGYGYDWGQGTQVTVSS	high polyreactivity
QVQLVESGGGLVQAGGSLRLSCAASGFIFYRYAMGWYRPAPGKVRELVAAINWSGGGTYYADSVKGRFTISRDHAKNTVYLQKNSRKPEETAVYYCAAGRSFRGSYWYEYCGQGTQVTVSS	high polyreactivity
QVQLVESGGGLVQAGGSLRLSCAASGRTFGYNVMGWYRQAPGKERELVADITSTSSTSYADSVKGRFTISRDNAKNTVYLQMNSLTPEDTAVYYCAAYYYFFRRYSWRLSGDYWGQGTQVTVSS	low polyreactivity
QVQLVESGGGLVQAGGSLRLSCAASGRIFTTYAMGWYRQAPGKERELVAAISQNGGSTYYADSVKGRFTISRDNAKNTVYLQMNSLKPEETAVYYCNAGPAGYYDYDYWGQGTQVTVSS	low polyreactivity
QVQLVESGGGLVQAGGSLRLSCAASGLIFYDNMGWYRQAPGKERELVAAISSSGGSTNYADSVKGRFTISRDNAKNTVYLQMNSLKPEDTAVYYCAADSYPAYLGFVGFDYWGQGTQVTVSS	low polyreactivity
QVQLVESVGGLVQAGGSLRLSCAASGSIFGRYVMGWYRQAPGKERELVAAITSGGTTNYADSVKGRFTISRDNAKHTVYLQMNSLKPEDTAVYSCNADYYSRIVGVRIYDYWGQGTQVTVSS	low polyreactivity
QVQLVESGGGLVQAGGSLRLSCAASGLTFGDYTMGWYRQAPGKERELVAAITWSGASTYSADSVKGRFTISRDNAKNTVYLQMNSLKPEDTAVYYCAAERTPSYRAYDYWAQGTQVTVSS	low polyreactivity
QVQLVESGGGLVQAGGSLRISCAASGSILVFYAMGWYRQAPGKESELVATITGSVGRTSYADSVKGRFTISRDNAKNTVYLQMNSLIPEDTAVYYCAADADTDVFYILQEYDYWGQGTQVTVSS	low polyreactivity
QVQLVESGGGLVQAGGSLRLSCGASGRIFRYYAMGWYRQAPGTDREVVAAITQRGGSTYADSVKGRFTISRDNAKKTVYLQMNSLKPEDTADYSCPYRGSFLYDYWGQGTQVTVSS	low polyreactivity
QVQLVESGGGLVQAGGSLRLSCAASGSIFTNNAMGWYRQAPGKERELVAGISIRGSSTYADSVKGRFTISRDNAKNTVYLQMNSLKPEDTAVYDCAADAYLELDPEVDYWGQGTQVTVSS	low polyreactivity
QVQLVESGGGLVQAGGSLRLSCDASGSIFYIYAMGWSRQAPGKERELVATISGSGGSTHYADSVKGRFTISRDNAKNTVYLQMNSLKPEDTAVYYCDADVLPYGYYWGQGTQVTVSS	low polyreactivity

Sequence	polyreactivity (PSR sort gate)
QVQLVQSGGGLVEAGGSLRLSCAASGSNFWANAMGWYRQAPGKERELVAGITLNGGLTYYADSVKGRFTISRDNAKNTVYLQMYSLKPEETEVYFCAAAYPTDRHYYWGLGTQVTVSS	low polyreactivity
QVQLVESGGGLVQAGGSLRLSCAASGSIFSLYAMGWYRQAPGKERELVADIRTSTGRTYYADSVKGRFTISRDNAKNTVYLQMNSLKPEDTAVYYCNADEYKSAVSVGYEYWGQGTQVTVSS	high polyreactivity
QVQLVESGGGLVQAGGSLRLSCAAYGITFAPYAMGWYRQAPGKERELVAGINTGGSTYYADSVKGRFTISRDNAKNTVYLQMNSLKPEDTAVYYCATESYPADHDIPGSDYWGQGTQVTVSS	low polyreactivity
QVQLVESGGGLVQAGGSLRLSCAASGSISDSYAMGWYRPAPGKERELVAAITSGDSTYYADSVKGRFTISRDNAKNTVYLQMNSLKPEDTAVYYCAKRVSRVLGYGFTDWSEYDYWGQGTQVTVSS	low polyreactivity
QVQLVESGGGLVQAGGSLRLSCAASGSIFPSYVMGWYRQAPGKERELVAGITSSGGSTYYADSVKGRFTISRDNAKNTVYLQMNSLKPEDTAVYYCAARWKPASYGYGYWGQGTQVTVSS	low polyreactivity
QVQLVESGGGLVQAGGSLRLSCAASGRTFGRNAMGWYRQAPGKERELVAAINSGGSTKYADSVKGRFTISRDNAKNTVYLQMNSLKPEDTSVYYCARRGGFSYYYWGQGTQVTVSS	high polyreactivity
QVQLVESGGGLVQAGGSLRLSCAASGRNFRRYTMGWYRQAPGKERELVATISSGGSTYADSVKGRFTISRDNAKNTVYLQMNSVKPEDSAVYYCAAQTWGSGYGNIGRRRHDYWGQGTQVTVSS	high polyreactivity
QVQLVESGGGLVQAGGSLRLSCAASGSIIYRYAMGWYRQARGKERELVAAISTTGGRTYYADSVKGRFTISRDNAKNTVYLQMNSLKPEDTAVYYCNTYGSGTHSTGYDYWGQGTQVTVSS	low polyreactivity
QVQLVESGGGLVQAGGSLRLSCAASGYTFRYYAMGSYRQAPGKERELVAAITWSGGSTYYADSVKGRFTISRDNAKNTVYLQMNSLKPEDTAVYFCATDSARVGNFPYPQFDYWGQGTQVTVSS	low polyreactivity
QVQLVESGGGLVQAGCSLRLSCAASGRTFSTYAMGWYRQAPGKERELVAAITRRGGSTYYADSVKRRFTISRDNAKNTVYLQINSLKPEDTAVYYCETYADRPPRTPDISYVSNFDYWGQGTQVTVSS	low polyreactivity
QVQLVESGGGLVQAGGSLRLRCAASGLTFVRYTMGWYRPAPGKERELVAAITYSDASTYYADSVKGRFTISRDNAKNTVYLQKNSLKPEDTAVYYCAAVYFGGPRSNSPYSRYGYWGQGTQVTVSS	low polyreactivity
QVHLVESGGGLVQAGGSLRLSCAASGRIFGIYAMGWYRQAPGKERELVALITGGGSTNYADSVKGRFTISRDNAKNTVYLQMNSLKPEDTAVYYCAATVRRIVGNITRYDYWGQGTQVTVSS	low polyreactivity
QVQLVESGGGLVQAGGSLRLSCAASGITFVRYAMAWYRQAPGKEREFVAAINSIVGRTYYADSVKGRFTISRDNAKNTVYLQMNSLKPEDTAVYYCAADSNVRFGMDYWGQGTQVTVSS	low polyreactivity
QVQLVESGGGFVQAGGSLSLSCAASGFTFRRYAMGWYRQAPGKERELVAAITSGGSTNYADSVKGRFTISRDNAKNTVYLQMNSLKPEDTAVYYCNARAGYERYGYWGQGTQVTVSS	high polyreactivity
QVQLVESGGGLVQAGGSHRLSCAASGFIFYSNAMGWYRQAPGKERELVAAITSGGSTYYADSVKGRFTISRDNAKNTVYLQMNSLKPEDTAVYYCNKARRWRGYDYWGQGTLVTVSS	high polyreactivity
QVWLQESRGGLVQASGSLRLSCAASGTISRDIFMGWYRQAPGKEREFVATIAQGGITNYADSVKGRFTISRDNAKNTVYLLMISVKPGDTEVYYCAARDGNCYWFYYWGQGTQVTVSS	high polyreactivity
QVQLVESGGGLVQAGGSLRLSCAASGIIFPSYVMGWYRPAPGKERELVARISARGGRTYYADSVKGRFTISRDNAKNTVYLQMNSLKPEDTAVYYCAARWGITTWYDYWGQGTQVTVSS	high polyreactivity
QVQLVESGGGLVQAGGSLRLSCAASGSICRSYAMGWYRQAPGKERELVASITRSYGSTYYADSVKGRFTISRDNAKNTVYLQMNSLKPEDTAVYYCNAVVSKSRRFRVDYWGHGTQVTVSS	high polyreactivity
QVQLVESGGGLVQAGGSLRLSCAASGNTFKDYTMGWFRQAPGTERELVASINSGGSTNYADSVKGRFTISRDNAKNTVYLQMNSLKPEDTAVYDCAKRAWSDYNPIDYWGQGTQVTVSS	low polyreactivity
IIQAGGSLRLSCAASGRTFSGYAMGWYRQAPGKERELIADITSGGSTYYADSVKGRFTISRDNAKNTVYLQMNSLKPEDTAVYYCAAERQIRSFWSSRTYEFGYWGQGTQVTVSS	low polyreactivity
QVQLVESGGGLVQAGGSLRLSCAASGRTCYSYAMGWYRQAPGKVRALVAAITSSGSTNADSVKGRFTISRDNAKNTDYLQMNSLKPEDTAVYYCATRSYILGWRYDYWGQGTQVTVSS	high polyreactivity
